B1: peptide HD2 (from tick evasin EVA4) / CCL19 (biotinylated, synthetic) (parent complex)
chain 1: EEDDYTAYAPLTCYFT
chain 2: GTNDAEDCCLSVTQKPIPGYIVRNFHYLLIKDGCRVPAVVFTTLRGRQLCAPPDQPWVERIIQRLQRTSAKMKRRSS
B2: peptide HD2 (from tick evasin EVA4) / CXCL13 (biotinylated, synthetic) (parent complex)
chain 1: EEDDYTAYAPLTCYFT
chain 2: VLEVYYTSLRCRCVQESSVFIPRRFIDRIQILPRGNGCPRKEIIVWKKNKSIVCVDPQAEWIQRMMEVLRKRSSSTLPVPVFKRKIP

In one assay the parent is B1.
As to chain 1 L11F, the enrichment was -0.375 log2 (difference from the parental peptide). For the variant chain 1 L11A, the enrichment is -6.47 log2 (difference from the parental peptide). Same read-out and setting: next, chain 1 A7P: -4.29 log2 (difference from the parental peptide). Still for that read-out and setting: to chain 1 A7T belongs -0.798 log2 (difference from the parental peptide). Same read-out and setting: next, chain 1 A7F: 1.3 log2 (difference from the parental peptide); chain 1 F15G: -8.74 log2 (difference from the parental peptide); chain 1 A9W: 2 log2 (difference from the parental peptide). With chain 1 A9P, the enrichment is -3.61 log2 (difference from the parental peptide). On the same count and under the same terms, next, chain 1 D3P: -6.49 log2 (difference from the parental peptide); chain 1 T16I: 0.728 log2 (difference from the parental peptide). On the same count and under the same terms, to chain 1 C13N belongs -2.93 log2 (difference from the parental peptide). On the same count and under the same terms, to chain 1 Y14H belongs -4.96 log2 (difference from the parental peptide). On to chain 1 Y14I, for which the enrichment is -6.25 log2 (difference from the parental peptide). Still for that read-out and setting: to chain 1 Y14W belongs -2.78 log2 (difference from the parental peptide). As for chain 1 E2W, the enrichment was 3.67 log2 (difference from the parental peptide).

On to chain 1 T12R, for which the enrichment was -3.3 log2 (difference from the parental peptide).

chain 1 T12K: the enrichment is -6.56 log2 (difference from the parental peptide).

Take chain 1 T12S: the enrichment was -6.54 log2 (difference from the parental peptide). In the case of chain 1 T6F, the enrichment is 2.62 log2 (difference from the parental peptide). The same measure, in the same setting: next, chain 1 T6V: -2.16 log2 (difference from the parental peptide); chain 1 T6Q: -0.425 log2 (difference from the parental peptide); chain 1 E1W: 3.38 log2 (difference from the parental peptide).

Variants of B2 are the subject of a further assay.
Take chain 1 E2L: the enrichment is -1.53 log2 (difference from the parental peptide).

As to chain 1 E2P, the enrichment was -4.82 log2 (difference from the parental peptide).

For the variant chain 1 E2T, the enrichment was -3.42 log2 (difference from the parental peptide). Same read-out and setting: to chain 1 E2N belongs -3.27 log2 (difference from the parental peptide). On the same count and under the same terms, next, chain 1 E2A: -1.7 log2 (difference from the parental peptide); chain 1 D3Y: -2.28 log2 (difference from the parental peptide); chain 1 D3A: -5.8 log2 (difference from the parental peptide).

As to chain 1 D3G, the enrichment is -5.23 log2 (difference from the parental peptide). Same read-out and setting: to chain 1 D3Q belongs -3.76 log2 (difference from the parental peptide); to chain 1 D3T, -4.07 log2 (difference from the parental peptide).

For chain 1 D3F, the enrichment is -4.35 log2 (difference from the parental peptide). As to chain 1 D3V, the enrichment is -5.31 log2 (difference from the parental peptide). On to chain 1 D3W, for which the enrichment is -0.789 log2 (difference from the parental peptide). Same read-out and setting: to chain 1 E1A belongs -0.971 log2 (difference from the parental peptide); to chain 1 E1V, -2.3 log2 (difference from the parental peptide). Same read-out and setting: next, chain 1 E1T: -1.65 log2 (difference from the parental peptide). As for chain 1 E1H, the enrichment was -3.17 log2 (difference from the parental peptide).

As for chain 1 E1R, the enrichment is -5.75 log2 (difference from the parental peptide). The same measure, in the same setting: next, chain 1 E1P: -3.73 log2 (difference from the parental peptide); chain 1 E1Q: -0.204 log2 (difference from the parental peptide); chain 1 E1G: -1.69 log2 (difference from the parental peptide).

As to chain 1 E1I, the enrichment is -1.63 log2 (difference from the parental peptide). In the case of chain 1 E1L, the enrichment was -1.96 log2 (difference from the parental peptide). The same measure, in the same setting: to chain 1 T6F belongs 1.42 log2 (difference from the parental peptide); to chain 1 T6W, 5.97 log2 (difference from the parental peptide). Same read-out and setting: to chain 1 T6S belongs 2.15 log2 (difference from the parental peptide); to chain 1 T6V, -2.98 log2 (difference from the parental peptide). Take chain 1 T6R: the enrichment was -1.88 log2 (difference from the parental peptide).

For chain 1 T6C, the enrichment is -9.9 log2 (difference from the parental peptide). The same measure, in the same setting: to chain 1 T6Y belongs 3.32 log2 (difference from the parental peptide); to chain 1 T6L, 1.48 log2 (difference from the parental peptide). On the same count and under the same terms, to chain 1 T6I belongs -3.55 log2 (difference from the parental peptide). Same read-out and setting: to chain 1 F15E belongs -7.7 log2 (difference from the parental peptide); to chain 1 F15P, -3.33 log2 (difference from the parental peptide). On to chain 1 F15G, for which the enrichment is -9.13 log2 (difference from the parental peptide). Take chain 1 F15A: the enrichment is -4.66 log2 (difference from the parental peptide). Same read-out and setting: next, chain 1 F15M: -4.67 log2 (difference from the parental peptide); chain 1 F15V: -2.57 log2 (difference from the parental peptide). Same read-out and setting: to chain 1 F15Q belongs -6.18 log2 (difference from the parental peptide); to chain 1 F15Y, -0.776 log2 (difference from the parental peptide). Consider chain 1 F15T, for which the enrichment was -5.1 log2 (difference from the parental peptide). The same measure, in the same setting: to chain 1 F15W belongs -3.2 log2 (difference from the parental peptide). Same read-out and setting: next, chain 1 F15C: -7.62 log2 (difference from the parental peptide); chain 1 A9L: -0.527 log2 (difference from the parental peptide). Consider chain 1 A9T, for which the enrichment is -1.4 log2 (difference from the parental peptide). Same read-out and setting: to chain 1 A9Q belongs -0.472 log2 (difference from the parental peptide).

With chain 1 A9S, the enrichment was -1.23 log2 (difference from the parental peptide).

As to chain 1 A9N, the enrichment is -3.98 log2 (difference from the parental peptide). The same measure, in the same setting: to chain 1 A9V belongs -5.11 log2 (difference from the parental peptide); to chain 1 A9E, 1.61 log2 (difference from the parental peptide); to chain 1 A9F, -2.3 log2 (difference from the parental peptide).

Consider chain 1 A9R, for which the enrichment was -4.49 log2 (difference from the parental peptide). On the same count and under the same terms, next, chain 1 A9P: 2.11 log2 (difference from the parental peptide); chain 1 A7K: -1.87 log2 (difference from the parental peptide); chain 1 A7L: 1.64 log2 (difference from the parental peptide). Same read-out and setting: to chain 1 A7Y belongs 3.99 log2 (difference from the parental peptide). Same read-out and setting: to chain 1 A7G belongs 1.15 log2 (difference from the parental peptide). Take chain 1 A7P: the enrichment was 1.36 log2 (difference from the parental peptide).

Turning to chain 1 A7M, the enrichment is 3.01 log2 (difference from the parental peptide).

For the variant chain 1 A7I, the enrichment is 0.819 log2 (difference from the parental peptide). Same read-out and setting: to chain 1 A7R belongs -1.49 log2 (difference from the parental peptide); to chain 1 A7F, 0.877 log2 (difference from the parental peptide). On to chain 1 A7Q, for which the enrichment was 3.15 log2 (difference from the parental peptide). Still for that read-out and setting: to chain 1 A7E belongs 5.25 log2 (difference from the parental peptide); to chain 1 A7V, 0.636 log2 (difference from the parental peptide); to chain 1 Y5S, -3.07 log2 (difference from the parental peptide). For the variant chain 1 Y5V, the enrichment is -2.43 log2 (difference from the parental peptide). Same read-out and setting: next, chain 1 Y5N: -2.57 log2 (difference from the parental peptide); chain 1 Y5I: -1.67 log2 (difference from the parental peptide); chain 1 Y5F: -0.242 log2 (difference from the parental peptide). On the same count and under the same terms, to chain 1 Y5W belongs 5.05 log2 (difference from the parental peptide); to chain 1 T12Q, -3.59 log2 (difference from the parental peptide); to chain 1 T12R, -8.86 log2 (difference from the parental peptide). Same read-out and setting: to chain 1 T12H belongs -5.34 log2 (difference from the parental peptide); to chain 1 T12C, -5.24 log2 (difference from the parental peptide); to chain 1 T12S, -6.76 log2 (difference from the parental peptide). chain 1 T12P: the enrichment was -5.86 log2 (difference from the parental peptide). Same read-out and setting: next, chain 1 T12Y: -0.431 log2 (difference from the parental peptide); chain 1 T12W: -0.341 log2 (difference from the parental peptide); chain 1 T16Y: -0.167 log2 (difference from the parental peptide). Same read-out and setting: to chain 1 T16M belongs 0.915 log2 (difference from the parental peptide).

In the case of chain 1 T16P, the enrichment is -0.922 log2 (difference from the parental peptide).

As for chain 1 T16E, the enrichment is 1.77 log2 (difference from the parental peptide).

In the case of chain 1 T16I, the enrichment is -0.117 log2 (difference from the parental peptide). The same measure, in the same setting: to chain 1 T16K belongs -6.05 log2 (difference from the parental peptide); to chain 1 T16C, 0.44 log2 (difference from the parental peptide); to chain 1 T16N, -0.837 log2 (difference from the parental peptide).

As to chain 1 T16A, the enrichment was 0.703 log2 (difference from the parental peptide).

In the case of chain 1 Y8I, the enrichment was -4.99 log2 (difference from the parental peptide).

Consider chain 1 Y8S, for which the enrichment was -4.52 log2 (difference from the parental peptide). On the same count and under the same terms, next, chain 1 Y8F: 0.328 log2 (difference from the parental peptide).

chain 1 Y8V: the enrichment was -4.22 log2 (difference from the parental peptide). On the same count and under the same terms, to chain 1 Y8D belongs 0.221 log2 (difference from the parental peptide). As to chain 1 Y8H, the enrichment was -6.35 log2 (difference from the parental peptide). On the same count and under the same terms, to chain 1 Y8W belongs 2.6 log2 (difference from the parental peptide); to chain 1 Y8E, -1.96 log2 (difference from the parental peptide); to chain 1 Y14M, -7.75 log2 (difference from the parental peptide). On the same count and under the same terms, to chain 1 Y14W belongs -2.89 log2 (difference from the parental peptide); to chain 1 Y14T, -6.13 log2 (difference from the parental peptide); to chain 1 Y14F, -0.356 log2 (difference from the parental peptide). Same read-out and setting: next, chain 1 Y14V: -9.22 log2 (difference from the parental peptide). As for chain 1 L11T, the enrichment is -3.85 log2 (difference from the parental peptide). On the same count and under the same terms, to chain 1 L11M belongs 3.77 log2 (difference from the parental peptide); to chain 1 L11C, -5.19 log2 (difference from the parental peptide); to chain 1 L11R, -5.68 log2 (difference from the parental peptide). Still for that read-out and setting: next, chain 1 C13E: -6.71 log2 (difference from the parental peptide); chain 1 C13I: -4.63 log2 (difference from the parental peptide). Still for that read-out and setting: next, chain 1 C13Y: -6.52 log2 (difference from the parental peptide). As to chain 1 C13T, the enrichment was -5.19 log2 (difference from the parental peptide). Still for that read-out and setting: to chain 1 C13P belongs -7.37 log2 (difference from the parental peptide). Still for that read-out and setting: to chain 1 C13V belongs -5.3 log2 (difference from the parental peptide); to chain 1 D4I, -4.76 log2 (difference from the parental peptide); to chain 1 D4W, -0.19 log2 (difference from the parental peptide). The same measure, in the same setting: next, chain 1 D4Q: -2.67 log2 (difference from the parental peptide). On to chain 1 D4N, for which the enrichment was -3.74 log2 (difference from the parental peptide). Same read-out and setting: next, chain 1 D4V: -5.82 log2 (difference from the parental peptide); chain 1 D4H: -5.54 log2 (difference from the parental peptide); chain 1 D4S: -5.37 log2 (difference from the parental peptide).

Regarding chain 1 D4A, the enrichment was -6.85 log2 (difference from the parental peptide). Take chain 1 D4F: the enrichment was -4.23 log2 (difference from the parental peptide). With chain 1 P10H, the enrichment is -5.73 log2 (difference from the parental peptide). On the same count and under the same terms, to chain 1 P10A belongs -4.03 log2 (difference from the parental peptide); to chain 1 P10M, -7.27 log2 (difference from the parental peptide); to chain 1 P10W, -7.62 log2 (difference from the parental peptide).

Regarding chain 1 P10L, the enrichment is -9.28 log2 (difference from the parental peptide). With chain 1 P10V, the enrichment was -9.15 log2 (difference from the parental peptide). Same read-out and setting: to chain 1 P10G belongs 1.04 log2 (difference from the parental peptide); to chain 1 P10E, -2.35 log2 (difference from the parental peptide).

The record behind these values is paper PMC11969024 (2025).
